Experimental findings from patent US20150284465A1 (Chugai, published 2015) are described below.

By Kd is commonly meant the concentration at which binding is half-saturated. Broadly, the koff is the rate constant with which the complex falls apart. For orientation: kon means a measure of how fast the partners come together.

For assay [1], the target named is T1, human-derived Fcγ receptor IIb (Recombinant Human FcRIIB/C, R&D systems) (human, UniProt P31994 46-217, limits assumed).
T1 construct: Bought recombinant protein, construct not described; also called FcγRIIb
T1 sequence (looked up): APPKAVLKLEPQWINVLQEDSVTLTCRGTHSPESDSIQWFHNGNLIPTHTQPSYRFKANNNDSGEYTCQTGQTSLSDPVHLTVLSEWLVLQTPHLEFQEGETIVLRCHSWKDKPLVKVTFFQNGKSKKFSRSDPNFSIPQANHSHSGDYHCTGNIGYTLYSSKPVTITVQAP
The experiment in a line: SPR (Biacore T100), FcγRIIb immobilized on CM5, antibody as analyte at 200 µg/ml, 25 C. As to the method:
The FcγRIIb binding was assessed by the procedure described below. […] The amounts of bound antibody were compared. […] FcγRIIb was immobilized onto the sensor chip CM5 (Biacore) by the amine coupling method. The final amount of immobilized FcγRIIb was about 4,300 RU. Then, the running buffer was injected until the baseline was stabilized. The measurement was carried out after the baseline was stabilized. […] The running buffer used was HBS-EP+ (10 mM HEPES, 0.15M NaCl, 3 mM EDTA, 0.05% v/v Surfactant P20), and the flow rate was 20 μl/min. The measurement temperature was 25° C. The concentration of each IgG or modified form thereof was adjusted to 200 μg/ml. 20 μl of an analyte was injected and allowed to interact with the immobilized FcγRIIb. After interaction, the analyte was dissociated from FcγRIIb and the sensor chip was regenerated by injecting 200 μl of the running buffer. […] This series of injection was repeated twice.
(In SPR one partner is held on a chip, and binding of the other changes the refractive index at the surface.)

The target in assay [2] is T2, hFcγRIIIaV-His6 (human-derived Fcγ receptor IIIa, Val) (human, UniProt P08637 17-208, limits assumed).
T2 construct: also called FcγRIIIa (Val); not shown: His6 tag
T2 sequence (P08637 17-208 F176V limits assumed): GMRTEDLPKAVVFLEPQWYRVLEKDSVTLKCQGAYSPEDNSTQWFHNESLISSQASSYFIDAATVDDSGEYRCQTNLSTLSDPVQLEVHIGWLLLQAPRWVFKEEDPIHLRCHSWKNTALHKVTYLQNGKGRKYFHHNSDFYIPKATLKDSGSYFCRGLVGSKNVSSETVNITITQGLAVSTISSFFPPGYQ
The experiment in a line: SPR (Biacore T100), hFcγRIIIaV-His6 immobilized on CM5, antibody as analyte at 250 µg/ml. As to the method:
The FcγRIIIa binding was assessed by the procedure described below. […] The amounts of bound antibody were compared. […] FcγRIIIa was immobilized onto the sensor chip CM5 (Biacore) by the amine coupling method. […] The running buffer used was HBS-EP+, and the flow rate was 5 μl/min. The sample concentration was adjusted to 250 μg/ml using HBS-EP+. The analysis included two steps: two minutes of association phase where 10 μl of an antibody solution was injected and the subsequent four minutes of dissociation phase where the injection was switched with HBS-EP+. After the dissociation phase, the sensor chip was regenerated by injecting 20 μl of 5 mM hydrochloric acid. The association, dissociation, and regeneration constitute one analysis cycle. Various antibody solutions were injected to obtain sensorgrams. […] 1999 August; 29(8):2613-24.

Assay [3] addresses T3, soluble GPC3 core polypeptide (human, UniProt P51654 25-563).
T3 construct: also called soluble GPC3 core protein; soluble glypican-3 core
Nature of the assay: competitive ELISA on plate-immobilized soluble GPC3 core polypeptide; competitor: biotinylated H0L0 antibody at 0.3 µg/mL. The protocol:
100 μl of the polypeptide solution was added to each well of a 96-well plate. […] After 200 μl of blocking buffer was added, the plate was blocked at 4° C. overnight or longer. […] The plate was incubated at room temperature for one hour, and then washed five times with washing buffer using SkanWasher 400 (Molecular Devices). Goat anti-streptavidin alkaline phosphatase (Zymed) was 20,000-times diluted with substrate buffer and added to the plate at 100 μl/well. The plate was incubated at room temperature for one hour, and then washed five times with washing buffer using SkanWasher 400. The concentration of phosphatase substrate (Sigma) was adjusted to 1 mg/ml using the substrate buffer, and the solution was added to the plate at 100 μl/well. The plate was incubated for one hour.
(ELISA stands for enzyme-linked immunosorbent assay.)

The target in assay [4] is T3, soluble GPC3 core polypeptide. The experiment in a line: competitive ELISA on plate-immobilized soluble GPC3 core polypeptide; competitor: biotinylated GPC3-H2L2 antibody at 0.3 µg/mL. The protocol: The binding activities of prepared antibodies were determined by competitive ELISA. […] The plates were incubated at 4° C. for 30 minutes or more for blocking. […] The plates were incubated at room temperature for one hour, and then washed five times with washing buffer using SkanWasher 400 (Molecular Devices). 100 μl of goat anti streptavidin alkaline phosphatase (Zymed) 20,000-times diluted with substrate buffer was added to each well. The plates were incubated at room temperature for one hour, and then washed five times with washing buffer using SkanWasher 400. Phosphatase Substrate (Sigma) was prepared at 1 mg/ml using substrate buffer, and added to each well (100 μl). The plates were incubated for one hour.

Assay [5] addresses T4, SR344 (N-terminal 1st to 344th amino acids of soluble human IL-6R) (human, UniProt P08887 20-344, limits assumed).
T4 sequence (looked up): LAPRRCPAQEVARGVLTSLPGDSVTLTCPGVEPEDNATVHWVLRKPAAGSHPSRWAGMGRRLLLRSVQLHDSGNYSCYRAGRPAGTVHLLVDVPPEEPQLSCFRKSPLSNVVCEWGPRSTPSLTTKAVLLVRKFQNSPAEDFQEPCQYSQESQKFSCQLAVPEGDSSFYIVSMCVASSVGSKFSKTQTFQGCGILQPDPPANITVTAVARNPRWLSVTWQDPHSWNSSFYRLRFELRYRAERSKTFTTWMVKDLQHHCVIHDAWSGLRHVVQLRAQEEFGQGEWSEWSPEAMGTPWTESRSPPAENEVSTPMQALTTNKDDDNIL
Nature of the assay: cell-based or functional assay.

The target of assay [6] is T5, recombinant human IL-6R sR (R&D systems) (human, UniProt P08887 20-358).
T5 construct: Bought soluble receptor; also called rhIL-6sR; rhIL-s6R
T5 sequence (looked up): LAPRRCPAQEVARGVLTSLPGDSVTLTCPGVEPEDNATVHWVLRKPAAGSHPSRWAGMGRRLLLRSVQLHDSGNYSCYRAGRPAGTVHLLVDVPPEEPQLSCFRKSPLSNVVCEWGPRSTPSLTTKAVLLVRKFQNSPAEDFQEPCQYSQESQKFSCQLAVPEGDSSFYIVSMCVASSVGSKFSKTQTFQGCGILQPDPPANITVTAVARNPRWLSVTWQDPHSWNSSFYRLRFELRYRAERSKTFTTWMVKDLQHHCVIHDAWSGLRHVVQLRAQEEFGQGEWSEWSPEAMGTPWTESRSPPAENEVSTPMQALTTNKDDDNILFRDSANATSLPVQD
Nature of the assay: SPR (Biacore T100), antibody captured on Protein A, rhIL-6sR as analyte, 25 C. As to the method: The antigen-antibody interaction was measured by immobilizing 1,800 to 2,600 RU (resonance units) of rec-Protein A (Zymed) (hereinafter “Protein A”) onto a sensor chip, binding various antibodies onto the chip, and then flowing the antigen over the chip as an analyte. Various concentrations of recombinant human IL-6R sR (R&D systems) (hereinafter “rhIL-6sR”) were used as the antigen. All measurements were carried out at 25° C. The kinetic parameters, association rate constant kₐ (1/Ms) and dissociation rate constant kd (1/s) were calculated from the sensorgrams obtained by measurement. Then, KD (M) was determined based on the rate constants. The respective parameters were determined using Biacore T100 Evaluation Software (Biacore).

T3 sequence (P51654 other isoform, or with tags, fused parts or gaps limits assumed): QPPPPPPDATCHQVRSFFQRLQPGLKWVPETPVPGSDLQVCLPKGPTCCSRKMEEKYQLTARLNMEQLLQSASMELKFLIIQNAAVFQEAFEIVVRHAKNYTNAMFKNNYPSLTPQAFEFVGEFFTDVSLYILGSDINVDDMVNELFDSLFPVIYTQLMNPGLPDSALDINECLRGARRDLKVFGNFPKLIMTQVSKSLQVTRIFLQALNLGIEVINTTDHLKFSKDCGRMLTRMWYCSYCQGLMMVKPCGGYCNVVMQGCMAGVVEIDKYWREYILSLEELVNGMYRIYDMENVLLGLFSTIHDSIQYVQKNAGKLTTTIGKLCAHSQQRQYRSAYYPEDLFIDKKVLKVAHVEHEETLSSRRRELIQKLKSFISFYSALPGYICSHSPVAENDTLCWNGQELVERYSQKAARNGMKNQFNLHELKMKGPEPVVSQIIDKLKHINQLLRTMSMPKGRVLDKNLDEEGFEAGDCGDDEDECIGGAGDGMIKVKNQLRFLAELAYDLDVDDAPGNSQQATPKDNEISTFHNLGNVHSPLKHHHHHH

B1: WT-M17ΔGK (antibody, human IgG1, kappa)
heavy: QVQLQESGPGLVRPSQTLSLTCTVSGYSITSDHAWSWVRQPPGRGLEWIGYISYSGITTYNPSLKSRVTMLRDTSKNQFSLRLSSVTAADTAVYYCARSLARTTAMDYWGQGSLVTVSSASTKGPSVFPLAPSSKSTSGGTAALGCLVKDYFPEPVTVSWNSGALTSGVHTFPAVLQSSGLYSLSSVVTVPSSSLGTQTYICNVNHKPSNTKVDKKVEPKSCDKTHTCPPCPAPPVAGPSVFLFPPKPKDTLMISRTPEVTCVVVDVSHEDPEVKFNWYVDGVEVHNAKTKPREEQYNSTYRVVSVLTVLHQDWLNGKEYKCKVSNKGLPSSIEKTISKAKGQPREPQVYTLPPSRDELTKNQVSLTCLVKGFYPSDIAVEWESNGQPENNYKTTPPVLDSDGSFFLYSKLTVDKSRWQQGNVFSCSVMHEALHNHYTQKSLSLSP
light: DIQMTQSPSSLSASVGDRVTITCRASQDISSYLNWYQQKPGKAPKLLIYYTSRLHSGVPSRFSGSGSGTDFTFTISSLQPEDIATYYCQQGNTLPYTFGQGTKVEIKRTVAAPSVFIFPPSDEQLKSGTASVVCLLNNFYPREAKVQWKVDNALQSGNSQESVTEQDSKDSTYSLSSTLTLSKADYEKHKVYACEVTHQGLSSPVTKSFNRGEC
For B1, the binding result in assay [1] and in assay [2] was “binds” throughout.

B2: WT-IgG2 (antibody)
heavy: QVQLQESGPGLVRPSQTLSLTCTVSGYSITSDHAWSWVRQPPGRGLEWIGYISYSGITTYNPSLKSRVTMLRDTSKNQFSLRLSSVTAADTAVYYCARSLARTTAMDYWGQGSLVTVSSASTKGPSVFPLAPCSRSTSESTAALGCLVKDYFPEPVTVSWNSGALTSGVHTFPAVLQSSGLYSLSSVVTVPSSNFGTQTYTCNVDHKPSNTKVDKTVERKCCVECPPCPAPPVAGPSVFLFPPKPKDTLMISRTPEVTCVVVDVSHEDPEVQFNWYVDGVEVHNAKTKPREEQFNSTFRVVSVLTVVHQDWLNGKEYKCKVSNKGLPAPIEKTISKTKGQPREPQVYTLPPSREEMTKNQVSLTCLVKGFYPSDIAVEWESNGQPENNYKTTPPMLDSDGSFFLYSKLTVDKSRWQQGNVFSCSVMHEALHNHYTQKSLSLSPGK
light: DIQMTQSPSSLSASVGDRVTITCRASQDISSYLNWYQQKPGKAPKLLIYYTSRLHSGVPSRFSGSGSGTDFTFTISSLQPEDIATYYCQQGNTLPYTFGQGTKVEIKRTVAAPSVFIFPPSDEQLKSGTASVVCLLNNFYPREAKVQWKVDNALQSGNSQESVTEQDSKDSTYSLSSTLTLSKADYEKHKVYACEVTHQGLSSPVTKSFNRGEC
Consider B2, for which the binding result in assay [1] and in assay [2] was “binds” throughout.

B3: antibody H15L4 (antibody, V domains shown)
VH: QVQLVQSGAEVKKPGASVKVSCKASGYTFTDYEMHWIRQPPGQGLEWIGAIDPKTGDTAYSQKFKGRVTLTADKSTSTAYMELSSLTSEDTAVYYCTRFYSYTYWGQGTLVTVSS
VL: DIVMTQSPLSLPVTPGEPASISCRSSQSLVHSNRNTYLHWYQQKPGQAPRLLIYKVSNRFSGVPDRFSGSGSGTDFTLKISRVEAEDVGVYYCSQNTHVPPTFGQGTKLEIK
notes: Point mutant of the anti-glypican 3 antibody H0L0
Turning to B3, the binding result in assay [3] is “binds”.

B4: GPC3_H1L1 (antibody, human IgG1, kappa, V domains shown)
VH: QVQLVQSGAEVKKPGASVKVSCKASGYTFTDYEMHWIRQPPGKGLEWIGAINPKTGDTAYSQKFKGRVTLTADKSTSTAYMELSSLTSEDTAVYYCTRFYSYTYWGRGTLVTVSS
VL: DIVMTQSPLSLPVTPGQPASISCRASRSLVHSNRNTYLHWYQQKPGQAPRLLIYKVSNRFSGVPDRFSGSGSGTDFTLKISRVEAEDVGVYYCSQNTHVPPTFGRGTKLEIKR
notes: Anti-human GPC3 antibody
Turning to B4, in assay [4], the binding result is given as “binds”.

B5: Hspd1.8Lspd1.6 antibody (antibody, V domains shown)
VH: QVQLVQSGAEVKKPGASVTVSCKASGYTFTDYEMHWIRQPPGEGLEWIGAIDPKTGDTAYSQSFQDRVTLTADKSTSTAYMELSSLTSEDTAVYYCTRFYSYTYWGQGTLVTVSS
VL: DIVMTQSPLSLPVTPGEPASISCRASESLVHSNRNTYLHWYQQKPGQAPRLLIYKVSNRFSGVPDRFSGSGSGTDFTLTISSLQAEDVGVYYCSQNTHVPPTFGQGTKLEIK
notes: Anti-glypican 3, lowered isoelectric point; also called Hd1.8Ld1.6
B5: the binding result in assay [3] was “binds”.

B6: Hspu2.2Lspu2.2 antibody (antibody, V domains shown)
VH: QVQLVQSGAEVKKPGASVKVSCKASGYTFTDYEMHWIRQPPGKGLEWIGAINPKTGDTAYSQKFKGRVTLTADKSTSTAYMELSSLTSEDTAVYYCTRFYSYTYWGRGTLVTVSS
VL: DIVMTQSPLSLPVTPGQPASISCRASRSLVHSNRNTYLHWYQQKPGQAPRLLIYKVSNRFSGVPDRFSGSGSGTDFTLKISRVEAEDVGVYYCSQNTHVPPTFGRGTKLEIK
notes: Anti-glypican 3, raised isoelectric point; also called Hu2.2Lu2.2
Turning to B6, the binding result in assay [3] is “binds”.

B7: RD-6 (antibody, V domains shown)
VH: QVQLQESGPGLVRPSQTLSLTCTVSGYSITSDHAWSWVRQPPGRGLEWIGYISYSGITTYNPSLKSRVTMLRDTSKNQFSLRLSSVTAADTAVYYCARLLARATAMDYWGQGSLVTVSS
VL: DIQMTQSPSSLSASVGDRVTITCRASQDISSYLNWYQQKPGKAPKLLIYYTSRLHSGVPSRFSGSGSGTDFTFTISSLQPEDIATYYCQQGNTLPYTFGQGTKVEIK
notes: VH assembled from the FR and CDR entries of humanized PM-1
On to B7, for which the “BaF3/gp130 neutralizing activity, 100% inhibitory concentration against WT” value in assay [5] is roughly 50 fold. Besides, in assay [6], the Kd turned out to be 0.012 nM, the “fold higher affinity than WT” value was roughly 50 fold, the koff was determined as 2.8e-05 s⁻¹ and the kon amounted to 2.3e+06 M⁻¹ s⁻¹.

B8: WT-M11ΔGK (antibody)
heavy: QVQLQESGPGLVRPSQTLSLTCTVSGYSITSDHAWSWVRQPPGRGLEWIGYISYSGITTYNPSLKSRVTMLRDTSKNQFSLRLSSVTAADTAVYYCARSLARTTAMDYWGQGSLVTVSSASTKGPSVFPLAPSSKSTSGGTAALGCLVKDYFPEPVTVSWNSGALTSGVHTFPAVLQSSGLYSLSSVVTVPSSSLGTKTYTCNVDHKPSNTKVDKTVERKSCVECPPCPAPPVAGPSVFLFPPKPKDTLMISRTPEVTCVVVDVSQEDPEVQFNWYVDGVEVHNAKTKPREEQFNSTYRVVSVLTVLHQDWLNGKEYKCKVSNKGLPSSIEKTISKAKGQPREPQVYTLPPSQEEMTKNQVSLTCLVKGFYPSDIAVEWESNGQPENNYKTTPPVLDSDGSFFLYSKLTVDKSRWQEGNVFSCSVMHEALHNHYTQKSLSLSL
light: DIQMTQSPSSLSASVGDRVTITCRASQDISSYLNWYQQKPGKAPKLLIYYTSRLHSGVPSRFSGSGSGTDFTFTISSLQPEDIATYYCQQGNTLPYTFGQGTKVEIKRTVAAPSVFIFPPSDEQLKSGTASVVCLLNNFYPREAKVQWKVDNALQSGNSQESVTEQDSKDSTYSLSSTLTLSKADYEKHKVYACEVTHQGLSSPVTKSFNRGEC
On to B8, for which the binding result in assay [1] and in assay [2] was “binds” in each case.
